Laboratory results taken from article PMC5520056, “Cryo-EM structures of the ATP-bound Vps4^E233Q hexamer and its complex with Vta1 at near-atomic resolution” (Nature Communications, 2017).
Positions count from the first letter of the chain named. Numbers in names are those of the source.

T1: Vps4 (wild-type, yeast) (Saccharomyces cerevisiae, UniProt P52917 1-437, Cy5 maleimide (labelling efficiency 48%) in the single-molecule assay; unlabelled in the ATPase assay)
T1 sequence (looked up): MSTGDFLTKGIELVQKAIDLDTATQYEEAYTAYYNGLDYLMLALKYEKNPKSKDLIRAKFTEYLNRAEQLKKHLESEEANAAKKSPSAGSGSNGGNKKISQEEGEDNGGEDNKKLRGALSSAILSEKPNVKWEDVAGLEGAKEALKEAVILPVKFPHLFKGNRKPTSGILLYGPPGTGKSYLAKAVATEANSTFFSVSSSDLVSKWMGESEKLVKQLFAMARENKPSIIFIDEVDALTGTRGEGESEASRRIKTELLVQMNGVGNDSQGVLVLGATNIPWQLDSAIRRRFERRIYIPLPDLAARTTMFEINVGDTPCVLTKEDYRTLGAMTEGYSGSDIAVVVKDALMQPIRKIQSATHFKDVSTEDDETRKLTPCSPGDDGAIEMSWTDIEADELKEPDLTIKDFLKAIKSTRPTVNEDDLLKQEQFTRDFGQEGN

T2: Vps4^E233QC376S, Cy5-labelled (single-cysteine mutant) (Saccharomyces cerevisiae, UniProt P52917 1-437, E233Q | C376S, Cy5 maleimide on the single cysteine)
T2 construct: Vps4, Saccharomyces cerevisiae, with E233Q and C376S (only one cysteine left); source: E. coli BL21 (DE3), purified as for other mutant proteins, labelled with Cy5 maleimide
T2 sequence (looked up): T1 sequence (looked up) with E233Q, C376S

B1: Vps4^E233Q (full-length yeast Vps4 containing an E233Q mutation) (enzyme, Saccharomyces cerevisiae, UniProt P52917 1-437, looked up)
chain: T1 sequence (looked up) with E233Q
notes: Vps4 (vacuolar protein sorting 4), Saccharomyces cerevisiae, full length, with E233Q; Hexamer with ATP, dimer without ATP; written as the protomer because its self-association is what is measured; also called E233Q mutant; Vps4 E233Q mutant; source: E. coli BL21 (DE3), purified (Ni-NTA, apyrase treatment, SEC)
B2: Vps4 mutant E233QR325A (enzyme, Saccharomyces cerevisiae, UniProt P52917 1-437, looked up)
chain: T1 sequence (looked up) with E233Q, R325A
notes: Vps4, Saccharomyces cerevisiae, with E233Q and R325A; also called E233QR325A mutant; source: E. coli BL21 (DE3), purified (Ni-NTA, apyrase treatment, SEC)
B3: Vta1 (Vps twenty associated 1) (natural protein, Saccharomyces cerevisiae)
chain: MASNAARVVATAKDFDKVGLGIIGYYLQLYAVELILSEEDRSQEMTALATELLDTIEAFKKEIGGESEAEDSDKSLHVMNTLIHDQEKAKIYMLNFTMSLYNEKLKQLKDGPWDVMLKRSLWCCIDLFSCILHLWKENISETSTNSLQKRIKYCKIYLSKLAKGEIGSSDEKTLDYADFADDSEEIKDEDVDHQTSDLENNNNDKVEGLAPKDQTTSYEPVDEVPEFIDDADSVNEEEQTVDKNEDAITKDEQQVVKKEVDLTRPSAPSEPAAAEHKSYTKDELTKIMDRASKIEQIQKLAKYAISALNYEDLPTAKDELTKALDLLNSI
notes: Vta1, Saccharomyces cerevisiae, gene amplified from yeast genomic DNA; also called Vta1 dimer; source: E. coli BL21 (DE3), purified (Ni-NTA, apyrase treatment, SEC)
B4: Vta1^C124S154S, Cy3-labelled (single-cysteine mutant) (natural protein, Saccharomyces cerevisiae)
chain: B3 chain with C124S, C154S
modifications: Cy3 maleimide on the single cysteine
notes: Vta1, Saccharomyces cerevisiae, with C124S and C154S (only one cysteine left); source: E. coli BL21 (DE3), purified as for other mutant proteins, labelled with Cy3 maleimide

Experiments:
[1] = biological target: the molecule itself; assay: SEC-MALS; 200 ul of 5 mg/ml (50 uM) Vps4^E233Q preincubated with 1 mM ATP at 4 C for 1 h; Superdex 200 10/300 GL; assembly buffer (20 mM HEPES pH 7.5, 100 mM NaCl, 1 mM DTT, 2 mM MgCl2, 1 mM ATP)
[2] = biological target: the molecule itself; assay: SEC; oligomeric state without ATP (Supplementary Fig. 9)
[3] = biological target: the molecule itself; assay: SEC; oligomeric state with ATP: each mutant at 100 uM incubated with 1 mM ATP at 4 C for 1 h; Superdex 200 10/300 GL in assembly buffer
[4] = biological target: the molecule itself; assay: cryo-EM structure; ATP-bound Vps4^E233Q-Vta1 complex (1.5- to 2-fold molar excess of Vta1, 1 mM ATP, Superose 6), no glutaraldehyde; no symmetry imposed; 4.2 A
[5] = biological target: B1; assay: SEC; Vps4 mutants at 5 uM with Vta1 at molar ratio 1:2, 1 mM ATP, 4 C, 1 h; Superose 6 10/300 GL in assembly buffer; conditions: both partners purified
Vps4 (wild-type, yeast) = biological target: T1, Vps4 (wild-type, yeast); assay: cell-based or functional assay
[6] = biological target: T2, Vps4^E233QC376S, Cy5-labelled …; assay: fluorescence of two dyes in the SEC-separated complex; Cy5-Vps4 and Cy3-Vta1 single-cysteine mutants incubated at molar ratio 1:2 with ATP on ice 1 h, complex separated by SEC in assembly buffer; concentrations from standard curves of fluorescence; conditions: both partners purified

Binder: B1
- stoichiometry N [1]: 6
- stoichiometry N [2]: 2

Binder: B2
- stoichiometry N [3]: 6
- stoichiometry N [2]: 2

Binder: B3
- binding result [4]: binds
- binding result [5]: binds
- ATPase activity (malachite green) of 1 uM wild-type Vps4 in the presence of Vta1 (Vps4 (wild-type, yeast)): 2 fold

Binder: B4
- stoichiometry N [6]: 2.06 Vta1/Vps4^E233Q (molar ratio)
